Test: yeast display, Sf9 membrane polyspecificity reagent, FACS + sequencing; frameworks hold sequencing errors
Method in brief: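 Nanobodies came from a synthetic yeast display library in Saccharomyces cerevisiae BJ5465, induced with galactose for 36–48 hours and stained for 1 hour at 4 °C with 10% biotinylated, detergent-solubilized Sf9 membrane reagent. Cells were enriched on streptavidin microbeads and then FACS-sorted, with low and high (top ~1%) gates set on anti-HA fluorescence for expression and streptavidin fluorescence for reagent binding. Each polyreactivity label reflects the gate a clone came from. Genes were amplified by colony PCR, sequenced by MiSeq 2 × 250 and filtered by CDR length.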

Row | Sequence | polyreactivity (PSR sort gate)
1 | QVRLVESGGGLVQAGGSLRLSCAASGRIFGYYTMGWYRQAPGKERELVADNNRDGSTYADSVKGRFTLSRDNAKNTVYLQMNSLKPEDTAVYYCNAQYDSAYGLGFFIGYFSQYDYWGQGTQVTVSS | low polyreactivity
2 | QVRLVESGGGLVQAGGSLRLSCAASGRIFVYNAMGWYRQPPGKERELVASISWSGDSTYADSVKGRFTISRDNAKNTVYLQMNSLKPEDTAVYYCAAYSQADYQNMDYWGQGTQVTVSS | low polyreactivity
3 | QVRLVESGGGLVQAGGSLRLSCAASGSIFYFNAMGWYRQAPGKERELVATIRYRGGRTYADSVKGRFTISRDNAKNTVYLQMNSLKPEDTAVYFCNTYARYAYLTGRMDYWGQGTQVTVSS | high polyreactivity
4 | QVRLVESGGGLVQAGGSLRLSCAASGSTFNNYDMGWYRQAPGKERELVAAYADSVKGRFTISRDNAKNTVYLQMNRLKPEDTADYYCAAVREKTLYYLSRFDYWGQGTQVTVSS | low polyreactivity
5 | QVRLVESGGGLVQAGGSLRLSCAASGSTFQINAMGWYRQAPGKEREFVAAITVSSGSTYYADSVKGRFTISRDNAKNTVYLQMNSLKPEDTAVYYCAATSKPLGLQTYGYWGQGTQVTVSS | low polyreactivity
6 | QVRLVESGGGLVQAGGSLRLSCADSGSTFTTYAIGWYRQEPGKERELVAAISSGGDTKYADSVKGRFTISRDNAKNTVYLQMNSLKPEDTAVYYWNVVSFRYYYKYGYCGQGTQVTVSS | high polyreactivity
7 | QVTLVESGGGLVQAGGSLRLSCAASVLIFYSYAMGWYRQAPGKERELVAAISSGTRTYYADSVKGRFTISRDNAKNTVYLQMNSLKPEDTAVYYCAAVDAHKKRYPPSGRLYGYWGHGTQVTVSS | high polyreactivity
8 | WLLLMGWYRQPPGEERELVAGINDGASTNDADSVKGRFTISRDNARNTVYLKMNSLKPGDTAVYYCAGWQPVLIWFYYWGQGTQVTVSS | high polyreactivity

Source: the nanobody polyreactivity screen of Harvey et al. (2022)
